From the supplement of paper PMC9112550, “Optimization of the antimicrobial peptide Bac7 by deep mutational scanning” (BMC Biology, 2022) come the findings set out here.

This data set deals with Escherichia coli TOP10. Kind of data set: shrunken log2 fold change of peptide-encoding DNA abundance (4.5 h post-induction vs induction); higher = less antimicrobial activity (less host growth inhibition). The settings on record: time post-induction: 4.5 h; library: site-saturation at positions 5, 18, 19, 20.
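Further: peptides expressed intracellularly from a pBAD plasmid library in pooled LB shake-flask culture, induced with 0.3% L-arabinose, DNA abundance read by NGS, three biological replicates, DESeq2 with apeglm shrinkage.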

Turning to RRIRDRPPRLPRPRPRPIQKPRP, the “shrunken log2 fold change” value was -0.0081.
Then RRIRMRPPRLPRPRPRPQDHPRP, with -0.0101; and RRIRIRPPRLPRPRPRPFHFPRP, with -0.27.
RRIRARPPRLPRPRPRPWHSPRP: the “shrunken log2 fold change” value was 0.0528.
With RRIRVRPPRLPRPRPRPLSIPRP the figure was -0.233; with RRIRTRPPRLPRPRPRPPQKPRP, 0.0412; with RRIRARPPRLPRPRPRPFQYPRP, 0.0189.
With RRIRIRPPRLPRPRPRPAPKPRP the figure was 0.187; with RRIRDRPPRLPRPRPRPIHCPRP, -0.135; with RRIRWRPPRLPRPRPRPTHKPRP, 0.396.
With RRIRVRPPRLPRPRPRPWVFPRP the figure was 0.284.
Turning to RRIRRRPPRLPRPRPRPSMMPRP, the “shrunken log2 fold change” value is -0.216.
RRIRIRPPRLPRPRPRPQKHPRP: the “shrunken log2 fold change” value is -0.46.
Then RRIRMRPPRLPRPRPRPPTAPRP, with 1.03; and RRIRPRPPRLPRPRPRPLRRPRP, with 0.805.
With RRIRMRPPRLPRPRPRPGYTPRP the figure was -0.177.
With RRIRRRPPRLPRPRPRPPPEPRP the figure was 1.37; with RRIRVRPPRLPRPRPRPCVPPRP, 0.124; with RRIRFRPPRLPRPRPRPGVAPRP, 0.292.
For RRIRHRPPRLPRPRPRPQGQPRP, the “shrunken log2 fold change” value was 0.043.
For the sequence RRIRWRPPRLPRPRPRPPQQPRP, the “shrunken log2 fold change” value is 0.163.
With RRIRDRPPRLPRPRPRPDWHPRP the figure was 0.0912; with RRIRWRPPRLPRPRPRPDPRPRP, 0.751.
Then RRIRIRPPRLPRPRPRPTTSPRP, with -0.0703; and RRIRDRPPRLPRPRPRPYMPPRP, with -0.517.
With RRIRYRPPRLPRPRPRPSCTPRP the figure was -1.36; with RRIRRRPPRLPRPRPRPCIVPRP, -0.183; with RRIRFRPPRLPRPRPRPHMQPRP, -0.725.
As to RRIRGRPPRLPRPRPRPYNMPRP, the “shrunken log2 fold change” value is -0.531.
On to RRIRGRPPRLPRPRPRPNRVPRP, for which the “shrunken log2 fold change” value is 0.0309.
Then RRIRGRPPRLPRPRPRPTERPRP, with 0.675.
Then RRIRVRPPRLPRPRPRPKTPPRP, with 0.334.
As for RRIRIRPPRLPRPRPRPSHNPRP, the “shrunken log2 fold change” value is -1.06.
With RRIRYRPPRLPRPRPRPLKKPRP the figure was -0.339; with RRIRERPPRLPRPRPRPLPFPRP, -0.688.
With RRIRIRPPRLPRPRPRPEMTPRP the figure was 0.104; with RRIRPRPPRLPRPRPRPYPMPRP, -0.0996; with RRIRWRPPRLPRPRPRPHANPRP, -0.00914.
Consider RRIRGRPPRLPRPRPRPKHDPRP, for which the “shrunken log2 fold change” value was found to be 0.466.
RRIRHRPPRLPRPRPRPMWFPRP: the “shrunken log2 fold change” value is -0.218.
With RRIRDRPPRLPRPRPRPWPTPRP the figure was 0.104; with RRIRRRPPRLPRPRPRPEYPPRP, -0.137; with RRIRNRPPRLPRPRPRPCARPRP, -0.213.
With RRIRCRPPRLPRPRPRPMTFPRP the figure was -0.0603.
Then RRIRDRPPRLPRPRPRPLMAPRP, with 1.09; and RRIRWRPPRLPRPRPRPHEKPRP, with -0.00914.
As to RRIRCRPPRLPRPRPRPDANPRP, the “shrunken log2 fold change” value was -0.00199.
Then RRIRCRPPRLPRPRPRPVTTPRP, with -0.0492; and RRIRNRPPRLPRPRPRPKIVPRP, with -0.0195.
Then RRIRLRPPRLPRPRPRPTPFPRP, with 0.253; and RRIRSRPPRLPRPRPRPAYCPRP, with 0.149; and RRIRHRPPRLPRPRPRPTEGPRP, with -0.00285.
With RRIRIRPPRLPRPRPRPHWSPRP the figure was -0.187; with RRIRVRPPRLPRPRPRPGPDPRP, 0.465.
In the case of RRIRYRPPRLPRPRPRPAVHPRP, the “shrunken log2 fold change” value was -0.0328.
With RRIRCRPPRLPRPRPRPKDHPRP the figure was 0.0424.
RRIRYRPPRLPRPRPRPDGWPRP: the “shrunken log2 fold change” value was determined as 0.212.
Turning to RRIRPRPPRLPRPRPRPNSGPRP, the “shrunken log2 fold change” value is 0.0788.
Then RRIRRRPPRLPRPRPRPTWCPRP, with 0.0593; and RRIRNRPPRLPRPRPRPDAFPRP, with -0.0836; and RRIRYRPPRLPRPRPRPAAAPRP, with 0.455.
Then RRIRERPPRLPRPRPRPRFYPRP, with -0.115.
With RRIRGRPPRLPRPRPRPFLAPRP the figure was 0.525.
With RRIRFRPPRLPRPRPRPLHQPRP, the “shrunken log2 fold change” value was -0.37.
Turning to RRIRSRPPRLPRPRPRPSTEPRP, the “shrunken log2 fold change” value is -0.0608.
RRIRGRPPRLPRPRPRPKSNPRP: the “shrunken log2 fold change” value amounted to 0.446.
Then RRIRRRPPRLPRPRPRPRADPRP, with 0.461.
Then RRIRARPPRLPRPRPRPYYEPRP, with -1.02; and RRIRPRPPRLPRPRPRPFGTPRP, with -0.444; and RRIRSRPPRLPRPRPRPYMHPRP, with -0.395.
For RRIRHRPPRLPRPRPRPKTDPRP, the “shrunken log2 fold change” value was -0.434.
As to RRIRPRPPRLPRPRPRPDIKPRP, the “shrunken log2 fold change” value was -0.317.
With RRIRNRPPRLPRPRPRPDRNPRP the figure was -0.0291.
As for RRIRERPPRLPRPRPRPATQPRP, the “shrunken log2 fold change” value was 0.00813.
With RRIRCRPPRLPRPRPRPHLRPRP the figure was 0.144; with RRIRSRPPRLPRPRPRPEHMPRP, -0.391.
Then RRIRCRPPRLPRPRPRPVINPRP, with -0.116.
Then RRIRFRPPRLPRPRPRPDHYPRP, with -0.184; and RRIRVRPPRLPRPRPRPVETPRP, with 0.0754.
RRIRARPPRLPRPRPRPHSGPRP: the “shrunken log2 fold change” value is -0.0576.
With RRIRMRPPRLPRPRPRPQNMPRP the figure was -0.631.
With RRIRSRPPRLPRPRPRPNACPRP the figure was 0.0406; with RRIRWRPPRLPRPRPRPEAGPRP, 0.877; with RRIRTRPPRLPRPRPRPTMKPRP, -0.334.
Then RRIRQRPPRLPRPRPRPHYRPRP, with -0.0839; and RRIRSRPPRLPRPRPRPTHDPRP, with 0.221.
Consider RRIRYRPPRLPRPRPRPQFKPRP, for which the “shrunken log2 fold change” value was -0.134.
With RRIRPRPPRLPRPRPRPSLWPRP the figure was 0.471.
Then RRIRWRPPRLPRPRPRPSIVPRP, with -0.00221; and RRIRLRPPRLPRPRPRPKTVPRP, with -0.0699; and RRIRQRPPRLPRPRPRPKVLPRP, with 0.0378.
On to RRIRLRPPRLPRPRPRPVYHPRP, for which the “shrunken log2 fold change” value was -0.856.
Turning to RRIRTRPPRLPRPRPRPPTDPRP, the “shrunken log2 fold change” value was determined as 0.0638.
On to RRIRVRPPRLPRPRPRPYLMPRP, for which the “shrunken log2 fold change” value is -0.587.
Then RRIRDRPPRLPRPRPRPYIAPRP, with -0.652; and RRIRARPPRLPRPRPRPCYYPRP, with -0.508.
On to RRIRWRPPRLPRPRPRPQDIPRP, for which the “shrunken log2 fold change” value is -0.352.
As to RRIRCRPPRLPRPRPRPMWEPRP, the “shrunken log2 fold change” value was -0.0554.
Then RRIRQRPPRLPRPRPRPFGQPRP, with -0.0598.
Then RRIRWRPPRLPRPRPRPPKPPRP, with 0.648.
Then RRIRSRPPRLPRPRPRPRNDPRP, with -0.181.
As for RRIRQRPPRLPRPRPRPIDWPRP, the “shrunken log2 fold change” value came out at 1.59e-05.
With RRIRARPPRLPRPRPRPDSVPRP the figure was 0.118; with RRIRWRPPRLPRPRPRPSLQPRP, 0.0895; with RRIRIRPPRLPRPRPRPNPDPRP, -0.659.
Then RRIRHRPPRLPRPRPRPGRLPRP, with 0.129.
With RRIRHRPPRLPRPRPRPVTLPRP the figure was -0.175; with RRIRRRPPRLPRPRPRPLEGPRP, 0.0703; with RRIRHRPPRLPRPRPRPSHGPRP, -0.137.
Turning to RRIRWRPPRLPRPRPRPPNIPRP, the “shrunken log2 fold change” value is -0.446.
Then RRIRKRPPRLPRPRPRPVCVPRP, with 0.573.
Then RRIRYRPPRLPRPRPRPMFEPRP, with -0.315.
Then RRIRDRPPRLPRPRPRPNIWPRP, with 0.306; and RRIRMRPPRLPRPRPRPPWRPRP, with 1.34.
With RRIRHRPPRLPRPRPRPPPIPRP, the “shrunken log2 fold change” value was 0.361.
With RRIRIRPPRLPRPRPRPVQKPRP the figure was 0.0154; with RRIRSRPPRLPRPRPRPSLNPRP, -0.142.
With RRIRYRPPRLPRPRPRPGLAPRP the figure was 0.323; with RRIRWRPPRLPRPRPRPVCPPRP, 0.142.
Turning to RRIRFRPPRLPRPRPRPATVPRP, the “shrunken log2 fold change” value was determined as 0.00554.
Then RRIRQRPPRLPRPRPRPMVEPRP, with 0.168; and RRIRHRPPRLPRPRPRPSCLPRP, with -0.4; and RRIRRRPPRLPRPRPRPIEEPRP, with 0.0745.
Then RRIRFRPPRLPRPRPRPCHKPRP, with -0.443; and RRIRYRPPRLPRPRPRPPYTPRP, with -0.94.
